From paper PMC5128727, “Metalloprotease SPRTN/DVC1 Orchestrates Replication-Coupled DNA-Protein Crosslink Repair” come the findings set out here.

The data set deals with T1, SPRTN WT (human, UniProt Q9H040 1-489).
T1 sequence: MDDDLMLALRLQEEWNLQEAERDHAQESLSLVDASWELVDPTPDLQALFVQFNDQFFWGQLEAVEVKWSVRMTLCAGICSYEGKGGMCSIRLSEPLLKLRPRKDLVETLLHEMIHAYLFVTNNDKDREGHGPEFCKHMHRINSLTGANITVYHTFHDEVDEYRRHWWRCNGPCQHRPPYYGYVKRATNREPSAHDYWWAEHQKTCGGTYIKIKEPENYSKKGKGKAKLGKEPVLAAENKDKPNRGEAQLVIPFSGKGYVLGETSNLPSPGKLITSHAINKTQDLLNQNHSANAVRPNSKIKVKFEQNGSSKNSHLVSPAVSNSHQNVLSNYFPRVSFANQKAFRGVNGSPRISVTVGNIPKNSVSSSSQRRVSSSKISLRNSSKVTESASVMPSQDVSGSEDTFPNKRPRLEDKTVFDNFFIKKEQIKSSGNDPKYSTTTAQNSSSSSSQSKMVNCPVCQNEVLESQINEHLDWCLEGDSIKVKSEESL
Nature of the data set: fluorescence polarization; affinity similar to dsDNA; Probe annealing buffer: 10 mM HEPES pH 7.5, 50 mM NaCl; FP assay buffer and temperature not in the material. The note with it: protein: recombinant; tags: His-ZB tag cleaved by TEV; label: FITC (position not in material); single strand. On the technique in general: Fluorescence polarisation rises when a labelled molecule tumbles more slowly, as on binding a larger partner.

B1: ssDNA (OD1) (ssDNA)
DNA: ATCGATAGTCGGATCCTCTAGACAGCTCCATGTAGCAAGGCACTGGTAGAATTCGGCAGCGTC
As for B1, the binding result is “binds”.
